# Results published in the supplement of paper PMC10724198.
# ± gives the standard deviation of the averaged measurements.
# Tested on: Saccharomyces cerevisiae
# Experiment: protein stability index of tFT-peptide fusion (C-terminal peptide) (PSI (0-1 scale)); higher = more stable (slower turnover)
# Conditions: genetic background: wild type; temperature: 30 C
# 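Also: PSI is a weighted mean of sequencing reads over stability bins, variants kept only with over 10 reads, mCherry proximal and sfGFP distal, peptide attached via GGGS linker.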
row,Sequence,protein stability index
1,PPLSSSALPARS,0.692 ± 0.011
2,PPLTPPTPVPPG,0.6937 ± 0.0056
3,PPLTVRPFPFRV,0.662 ± 0.015
4,PPLVSPPPPLPP,0.62 ± 0.015
5,PPNPFPALRSSP,0.7324 ± 0.0011
6,PPPAPPGPRYRR,0.696 ± 0.025
7,PPPAPPHPPLRH,0.682 ± 0.027
8,PPPAPPLILVLP,0.539 ± 0.0037
9,PPPAPPLSPPPH,0.653 ± 0.038
10,PPPAPPPHRDLS,0.709 ± 0.057
11,PPPAPPPPLRLL,0.721 ± 0.046
12,PPPARPAPLSPP,0.692 ± 0.08
13,PPPASSPPPSAS,0.626 ± 0.062
14,PPPCPHLAPRLP,0.714 ± 0.071
15,PPPCPHRDGTSP,0.664 ± 0.05
16,PPPCRSLPLLPP,0.6546 ± 0.005
17,PPPDTPSPPSSL,0.668 ± 0.026
18,PPPFRPPPRLYS,0.693 ± 0.025
19,PPPFRTPPSRRP,0.739 ± 0.057
20,PPPGPSPLAAPP,0.654 ± 0.056
21,PPPGRPDAMTPP,0.676 ± 0.022
22,PPPGSPLPPPRA,0.702 ± 0.036
23,PPPILFTEPPLA,0.738 ± 0.0049

row,Sequence,protein stability index
1,PPPIPLSPPLVL,0.72 ± 0.014
2,PPPIPPFRLSRS,0.69 ± 0.061
3,PPPLLPPTPLPP,0.619 ± 0.0069
4,PPPLPLPPPPPP,0.58 ± 0.048
5,PPPLPPPAPPPR,0.663 ± 0.014
6,PPPLPPPLPLCS,0.675 ± 0.023
7,PPPLPPPYPPPP,0.627 ± 0.016
8,PPPLPSPPRPPS,0.734 ± 0.045
9,PPPLPTRPPPSA,0.649 ± 0.0082
10,PPPLRTHTGPPP,0.678 ± 0.0069
11,PPPLSPPLPFFV,0.666 ± 0.036
12,PPPLSSPPPRPL,0.709 ± 0.058
13,PPPLTPPPPPPR,0.725 ± 0.014
14,PPPNPHAASTHH,0.654 ± 0.0077
15,PPPPAFPPPLSP,0.716 ± 0.067
16,PPPPAHPPPRSP,0.741 ± 0.035
17,PPPPANVSHHAP,0.593 ± 0.073
18,PPPPAPPPPVPS,0.69246 ± 0.00027
19,PPPPAPSPPPSP,0.717 ± 0.0094
20,PPPPASARPSLP,0.477 ± 0.069
21,PPPPFLLPPLLD,0.707 ± 0.012
22,PPPPHFLVPLSP,0.695 ± 0.021
23,PPPPLDSFPFIT,0.701 ± 0.043

row,Sequence,protein stability index
1,PPPPLLPPPSPL,0.7 ± 0.032
2,PPPPLLPTPRPF,0.682 ± 0.039
3,PPPPLPPPPSPA,0.7911 ± 0.0045
4,PPPPLPPPSHYP,0.728 ± 0.033
5,PPPPLPRAPFSP,0.661 ± 0.0092
6,PPPPLPSPAPRP,0.735 ± 0.032
7,PPPPLSPPPEPR,0.659 ± 0.014
8,PPPPNPPRPSSR,0.758 ± 0.026
9,PPPPPALPSPPP,0.631 ± 0.025
10,PPPPPAPPPTPL,0.556 ± 0.011
11,PPPPPATRPSSL,0.674 ± 0.018
12,PPPPPFLPPPRL,0.749 ± 0.011
13,PPPPPGLAPPSP,0.681 ± 0.011
14,PPPPPHRTPHPS,0.727 ± 0.096
15,PPPPPLPLDYPP,0.638 ± 0.025
16,PPPPPLPPRSCL,0.703 ± 0.013
17,PPPPPLSPHSPP,0.699 ± 0.023
18,PPPPPPALPEYQ,0.708 ± 0.01
19,PPPPPPLAAPPS,0.7098 ± 0.0053
20,PPPPPPLPHSPP,0.647 ± 0.095
21,PPPPPPLPLLSI,0.668 ± 0.038
22,PPPPPPLSSPFP,0.643 ± 0.032
23,PPPPPPNPLPLP,0.68 ± 0.032

row,Sequence,protein stability index
1,PPPPPPPHSPLS,0.685 ± 0.04
2,PPPPPPPLPLLP,0.667 ± 0.036
3,PPPPPPPPLAPP,0.694 ± 0.022
4,PPPPPPPPPPRA,0.723 ± 0.035
5,PPPPPPPPPTFL,0.708 ± 0.017
6,PPPPPPPPSLSP,0.591 ± 0.047
7,PPPPPPPPTTVL,0.709 ± 0.023
8,PPPPPPRPPLRP,0.727 ± 0.012
9,PPPPPPVHPSSP,0.728 ± 0.0081
10,PPPPPPVSPAAL,0.69 ± 0.018
11,PPPPPRLTPPRL,0.722 ± 0.09
12,PPPPPRPPPSSP,0.746 ± 0.058
13,PPPPPRPSPHPP,0.62 ± 0.058
14,PPPPPSPSASSP,0.491 ± 0.11
15,PPPPPSPSPCLA,0.767 ± 0.044
16,PPPPPTAPPPSR,0.733 ± 0.055
17,PPPPPTRPPTRV,0.68 ± 0.079
18,PPPPRAPVPLPV,0.575 ± 0.022
19,PPPPRLPLDPPL,0.658 ± 0.041
20,PPPPSPPATPAP,0.652 ± 0.015
21,PPPPSPPLHRPP,0.738 ± 0.016
22,PPPPSPPPPSTT,0.751 ± 0.08
23,PPPPTLPPPLVP,0.726 ± 0.12

row,Sequence,protein stability index
1,PPPPTSFSPGTL,0.649 ± 0.043
2,PPPPTSPTSPEL,0.692 ± 0.051
3,PPPRHVPLPPLT,0.71 ± 0.11
4,PPPRLDTGAAQP,0.665 ± 0.0097
5,PPPRLVPSPPVP,0.7 ± 0.0039
6,PPPRPPGPPLPH,0.702 ± 0.075
7,PPPRPPPAPLAS,0.705 ± 0.027
8,PPPRVPPPVPPL,0.722 ± 0.047
9,PPPSDPLPPSVR,0.7044 ± 0.0067
10,PPPSPAQIPRPS,0.722 ± 0.19
11,PPPSPPHFTSPP,0.683 ± 0.006
12,PPPSRSLPPTPP,0.746 ± 0.084
13,PPPSSSGHPLHY,0.714 ± 0.05
14,PPPSSSLAAPPT,0.677 ± 0.026
15,PPPSSSSPPPPR,0.704 ± 0.039
16,PPPSYSPSLSLL,0.63132 ± 0.00041
17,PPPTPACPPATL,0.693 ± 0.039
18,PPPTPPPPRPLL,0.747 ± 0.048
19,PPPTPSGPHPAP,0.672 ± 0.028
20,PPPTRPPPPPSL,0.704 ± 0.075
21,PPPVDLPTRLIP,0.642 ± 0.0073
22,PPPYHLTPPPPF,0.662 ± 0.052
23,PPQLHVALPHPE,0.852 ± 0.2

row,Sequence,protein stability index
1,PPQRNFPARPTP,0.6988 ± 0.0034
2,PPRARPRLPPGA,0.606 ± 0.04
3,PPRHTPTNPPKA,0.677 ± 0.05
4,PPRLPPLPPSYP,0.777 ± 0.14
5,PPRPPLPPTLPP,0.6973 ± 0.0026
6,PPRPPPSPPLPS,0.663 ± 0.054
7,PPRPPRPSPPPP,0.72293 ± 8.1e-05
8,PPRPRPPLPALP,0.764 ± 0.11
9,PPRPRPPPSPYH,0.667 ± 0.011
10,PPRPVPRPHPRP,0.674 ± 0.011
11,PPRQSHHPNPQH,0.682 ± 0.038
12,PPRRPPLAPPPP,0.693 ± 0.019
13,PPRSSLNPDLTQ,0.695 ± 0.1
14,PPRYDSLFGALF,0.676 ± 0.066
15,PPSAPPSPPHPP,0.612 ± 0.011
16,PPSFLHPTPRPR,0.673 ± 0.082
17,PPSLLPAPQLPP,0.757 ± 0.066
18,PPSLLPSPPRLF,0.667 ± 0.057
19,PPSLPHLCRLHL,0.668 ± 0.057
20,PPSLPLPLPSAP,0.683 ± 0.015
21,PPSLVSPSSPPS,0.708 ± 0.047
22,PPSPLAPPCSPR,0.6719 ± 0.0056
23,PPSPLSRYSPRL,0.754 ± 0.0043

row,Sequence,protein stability index
1,PPSPPAPSPTPP,0.721 ± 0.038
2,PPSPPDPLLCSP,0.7017 ± 0.0043
3,PPSPPPPRPPSS,0.704 ± 0.055
4,PPSPPSHTPPPS,0.695 ± 0.051
5,PPSPRFFPSFPP,0.729 ± 0.021
6,PPSPRNSDPPPL,0.654 ± 0.071
7,PPSPRPALPLSL,0.762 ± 0.039
8,PPSPRPPPSPPP,0.7 ± 0.039
9,PPSPSLLPPLPP,0.684 ± 0.041
10,PPSPSPHPPPSH,0.842 ± 0.15
11,PPSPSPLPHSSP,0.676 ± 0.058
12,PPSQLWNSPSPC,0.767 ± 0.064
13,PPSRFPAPPSCA,0.705 ± 0.059
14,PPSSPLRRRTTS,0.725 ± 0.078
15,PPSSPPPASHRP,0.691 ± 0.046
16,PPSTPPRPDSPP,0.578 ± 0.084
17,PPTANLAHSSHP,0.693 ± 0.014
18,PPTHHRALRPSA,0.687 ± 0.026
19,PPTLPPPSPLIL,0.775 ± 0.11
20,PPTPMRAQRHPR,0.579 ± 0.01
21,PPTPPLVPPTRH,0.739 ± 0.016
22,PPTPPPLRPSFS,0.704 ± 0.023
